Data from patent US20160010082A1 (University of California, published 2016).
Residue numbers refer to the chain shown, from its start.

T1: biotinylated C-reactive protein (UniProt P02741 19-224, biotinylated)
T1 construct: also called CRP; biotinylated CRP
T1 sequence (looked up): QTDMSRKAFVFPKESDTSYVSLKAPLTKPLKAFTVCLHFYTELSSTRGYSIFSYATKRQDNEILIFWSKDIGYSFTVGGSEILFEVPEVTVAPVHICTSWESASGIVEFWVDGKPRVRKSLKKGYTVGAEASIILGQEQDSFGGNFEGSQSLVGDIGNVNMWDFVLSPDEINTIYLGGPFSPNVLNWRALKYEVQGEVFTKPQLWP

B1: CPX-L2-1 (enhanced CPX, eCPX) displaying SApep at the N-terminus (other)
chain: GQSGQAECHPQGPPCIEGRKGGQSGQSGDYNKNQYYGITAGPAYRINDWASIYGVVGVGYGKFQTTEYPTYKHDTSDYGFSYGAGLQFNPMENVALDFSYEQSRIRSVDVGTWILSVGYRFGSKSRRATSTVTGGYAQSDAQGQMNKMGGFNLKYRYEEDNSPLGVIGSFTYTEKSRTAS
notes: also called eCPX-nSApep
B2: CPX with the streptavidin binding peptide fused to the N-terminus (pB33CPX-SApep) (other)
chain: GQSGQAECHPQGPPCIEGRKGGQSGQSGDYNKNQYYGITAGPAYRINDWASIYGVVGVGYGKFQTTEYPTYKHDTSDYGFSYGAGLQFNPMENVALDFSYEQSRIRSVDVGTWIAGVGYRFGGSGATSTVTGGYAQSDAQGQMNKMGGFNLKYRYEEDNSPLGVIGSFTYTEKSRTAS
notes: also called parent CPX scaffold
B3: CPX-L2-10 displaying SApep at the N-terminus (other)
chain: GQSGQAECHPQGPPCIEGRKGGQSGQSGDYNKNQYYGITAGPAYRINDWASIYGVVGVGYGKFQTTEYPTYKHDTSDYGFSYGAGLQFNPMENVALDFSYEQSRIRSVDVGTWIISVGYRFHRGYHAQRATSTVTGGYAQSDAQGQMNKMGGFNLKYRYEEDNSPLGVIGSFTYTEKSRTAS
B4: CPX-L2-3 displaying SApep at the N-terminus (other)
chain: B1 chain with L115I, S123T, K124R, S125G, R126S, R127Q
B5: CPX-L2-6 displaying SApep at the N-terminus (other)
chain: B1 chain with L115V, S116A, S123A, K124R, S125G, R127H
B6: CPX-L2-4 displaying SApep at the N-terminus (other)
chain: B1 chain with S123H, K124R, R126H
B7: CPX-L2-2 displaying SApep at the N-terminus (other)
chain: B1 chain with L115F, S123R, S125N, R126S, R127H
B8: CPX-L2-5 displaying SApep at the N-terminus (other)
chain: B1 chain with L115I, S123D, K124R, S125K
B9: CPX-L2-8 displaying SApep at the N-terminus (other)
chain: B1 chain with L115V, S123P, K124N, S125K, R126S
B10: CPX-L2-7 displaying SApep at the N-terminus (other)
chain: B1 chain with L115V, S123T, K124H, S125N, R126S, R127Q
B11: CPX-L2-9 displaying SApep at the N-terminus (other)
chain: B1 chain with L115I, S123P, K124H, S125N, R126S
B12: CPX-4X-1 displaying SApep at the N-terminus (other)
chain: B2 chain with G123S, S124K, G125R
B13: CPX-4X-2 displaying SApep at the N-terminus (other)
chain: B2 chain with G123R, S124Q, G125K
B14: CPX-4X-4 displaying SApep at the N-terminus (other)
chain: B2 chain with A115V, G122P, G123R, S124K, G125S
B15: CPX-4X-3 displaying SApep at the N-terminus (other)
chain: B2 chain with G122S, G123W, S124P, G125N
B16: CPX-6X-2 displaying SApep at the N-terminus (other)
chain: B1 chain with L115A, S116G, S123R, K124R, S125H, R126Y, R127K
B17: CPX-6X-4 displaying SApep at the N-terminus (other)
chain: B1 chain with L115A, S125Q, R126S, R127K
B18: CPX-6X-1 displaying SApep at the N-terminus (other)
chain: B1 chain with L115A, S116G, S123T, S125R, R126Y, R127H
B19: CPX-6X-3 displaying SApep at the N-terminus (other)
chain: B1 chain with L115A, S116G, S123N, K124R, S125R, R126H
B20: CPX-3X-3 displaying SApep at the N-terminus (other)
chain: GQSGQAECHPQGPPCIEGRKGGQSGQSGDYNKNQYYGITAGPAYRINDWASIYGVVGVGYGKFQTTEYPTYKHDTSDYGFSYGAGLQFNPMENVALDFSYEQSRIRSVDVGTWIAGVGYRFGTKATSTVTGGYAQSDAQGQMNKMGGFNLKYRYEEDNSPLGVIGSFTYTEKSRTAS
B21: CPX-3X-4 displaying SApep at the N-terminus (other)
chain: B20 chain with T123K
B22: CPX-5X-1 displaying SApep at the N-terminus (other)
chain: GQSGQAECHPQGPPCIEGRKGGQSGQSGDYNKNQYYGITAGPAYRINDWASIYGVVGVGYGKFQTTEYPTYKHDTSDYGFSYGAGLQFNPMENVALDFSYEQSRIRSVDVGTWIAGVGYRFGRTRKATSTVTGGYAQSDAQGQMNKMGGFNLKYRYEEDNSPLGVIGSFTYTEKSRTAS
B23: CPX-5X-4 displaying SApep at the N-terminus (other)
chain: B22 chain with G116S, R123S, T124Q, R125S
B24: CPX-5X-3 displaying SApep at the N-terminus (other)
chain: B22 chain with A115V, R123A, K126R
B25: CPX-5X-2 displaying SApep at the N-terminus (other)
chain: B22 chain with T124K, K126N
B26: eCPX displaying the VEGF binding peptide at the N-terminus (other)
chain: GQSGQVEPNCDIHVMWEWECFERLGGQSGQSGDYNKNQYYGITAGPAYRINDWASIYGVVGVGYGKFQTTEYPTYKHDTSDYGFSYGAGLQFNPMENVALDFSYEQSRIRSVDVGTWILSVGYRFGSKSRRATSTVTGGYAQSDAQGQMNKMGGFNLKYRYEEDNSPLGVIGSFTYTEKSRTAS
notes: Disulfide-constrained 19-mer; also called V114
B27: eCPX displaying the CRP binding peptide (CRPpep) at the N-terminus (other)
chain: GQSGQEWACNDRGFNCQLQRGGQSGQSGDYNKNQYYGITAGPAYRINDWASIYGVVGVGYGKFQTTEYPTYKHDTSDYGFSYGAGLQFNPMENVALDFSYEQSRIRSVDVGTWILSVGYRFGSKSRRATSTVTGGYAQSDAQGQMNKMGGFNLKYRYEEDNSPLGVIGSFTYTEKSRTAS
notes: Disulfide-constrained peptide; also called CRP-1

The binders below were run against T2, streptavidin-R-phycoerythrin (UniProt P22629 37-163, limits assumed) (assay: flow cytometry of E. coli displaying the construct, 100 nM SA-PE; 30 minutes of expression).
T2 construct: Bought conjugate; also called SA-PE; fluorescently-conjugated streptavidin probe
Protocol: To compare the display level of CPX and eCPX as a function of time of CPX and eCPX, cells were subcultured 1:50 from overnight stocks into 5 mL LB Cm and grown for 2 hours shaking (250 rpm) at 37° C. The cells were then moved to room temperature (22° C.) to equilibrate and induced with 0.04% (w/v) L-arabinose still shaking at 250 rpm. Five μL samples were taken prior to induction, 30, 60, and 90 minutes after induction then added to 50 μL of 100 nM SA-PE in PBS and incubated on ice for 45 minutes. After which the cells were centrifuged (3000 g, 5 min), supernatant removed, and resuspended in 500 μL ice cold PBS. Cells were immediately analyzed with a […] using 488 nm excitation and collected fluorescence data at 576 nm.
The cell surface display level of SApep was measured at incremental times after induction of expression for these three scaffolds. […] The level of display was measured before and after 30, 60, and 90 minutes of induction using flow cytometry (FIG. 1). […] After only 30 minutes of expression, the level of display of eCPX-nSApep was 50-fold above background autofluorescence.

T2 sequence (P22629 37-163 limits assumed): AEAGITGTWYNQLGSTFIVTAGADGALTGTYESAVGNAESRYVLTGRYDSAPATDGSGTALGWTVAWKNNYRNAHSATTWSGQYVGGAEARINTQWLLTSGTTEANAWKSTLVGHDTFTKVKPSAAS

Binder	level of display (fold above background autofluorescence) [fold above background]
B1	50

What follows are binders tested against T2, streptavidin-R-phycoerythrin (assay: flow cytometry of E. coli displaying the construct, 100 nM SA-PE; 25 minutes of expression).

Binder	Relative Display level (fold fluorescence above background) [fold above background]
B2	1.5
B3	33
B4	29
B5	24
B6	27
B7	19
B8	28
B9	17
B10	26
B1	33
B11	23

The binders below were run against T2, streptavidin-R-phycoerythrin (assay: flow cytometry of E. coli displaying the construct, 100 nM SA-PE; 50 minutes of expression).

Binder	Relative Display level (fold fluorescence above background) [fold above background]
B12	18
B13	14
B14	22
B2	2.3
B15	15
B16	28
B17	38
B18	35
B19	24
B20	7.1
B21	10
B22	24
B23	36
B24	32
B25	22

These binders were tested against T3, biotinylated vascular endothelial growth factor (UniProt P15692-4 27-191, limits assumed) (assay: flow cytometry of E. coli displaying the construct, 65 nM biotinylated VEGF then 10 nM SA-PE; reference CPX display).
T3 construct: also called VEGF; biotinylated VEGF
T3 sequence (P15692 other isoform, or with tags, fused parts or gaps limits assumed): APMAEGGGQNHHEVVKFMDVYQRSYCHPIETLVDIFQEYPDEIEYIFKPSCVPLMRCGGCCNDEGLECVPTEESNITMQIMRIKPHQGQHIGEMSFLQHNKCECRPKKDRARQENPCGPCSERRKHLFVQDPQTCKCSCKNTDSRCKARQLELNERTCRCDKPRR

Binder	fold more efficient display than CPX [fold]
B26	> 3

These binders were tested against T1, biotinylated C-reactive protein (assay: flow cytometry of E. coli displaying the construct, 100 nM biotinylated CRP then 10 nM SA-PE; 30 minutes of expression; reference CPX display).

Binder	fold higher fluorescence labeling than for CPX [fold]
B27	~50
